Assay results reported in patent publication US20230365672A1 (KINDRED BIOSCIENCES, published 2023).
Residue numbers refer to the chain shown, from its start. Each block holds one binder with its values, some of them ahead of it.

What was measured:
[1] = target: T1, biotinylated equine IL31 (immobilized to the biolayer interferometry sensor) (equine, biotinylated, sites not stated); assay: biolayer interferometry, biotinylated equine IL31 on the sensor, preliminary measurement
T1 chain: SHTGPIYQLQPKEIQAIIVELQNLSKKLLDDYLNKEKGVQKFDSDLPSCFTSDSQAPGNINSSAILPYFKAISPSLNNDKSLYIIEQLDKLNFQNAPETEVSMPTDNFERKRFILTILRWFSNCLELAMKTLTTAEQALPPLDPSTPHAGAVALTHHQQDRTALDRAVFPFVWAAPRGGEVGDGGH

[2] = target: T2, canine IL31 with C-terminal polyHis tag (canine, biotinylated (EZ-Link NHS-LC-biotin), sites not stated); assay: biolayer interferometry (Octet), biotinylated canine IL31 on streptavidin tips, 2:1 binding model
T2 construct: also called biotinylated canine IL31
T2 chain: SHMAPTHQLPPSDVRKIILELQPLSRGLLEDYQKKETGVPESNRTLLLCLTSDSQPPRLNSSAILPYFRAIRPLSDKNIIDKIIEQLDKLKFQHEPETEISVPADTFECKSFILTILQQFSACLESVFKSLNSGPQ
Description: The binding analysis was performed using a biosensor Octet as follows. Briefly, canine IL31 was biotinylated. The free unreacted biotin was removed from biotinylated IL31 by extensive dialysis. Biotinylated canine IL31 was captured on streptavidin sensor tips. The association of four different concentrations (400, 200, 66.6, and 33 nM) of antibody and IL31 (human and canine, in different tests) was monitored for ninety seconds. Dissociation was monitored for 600 seconds. A buffer only blank curve was subtracted to correct for any drift. The data were fit to a 2:1 binding model using ForteBio™ data analysis software to determine the kₒₙ, koff, and the Kd. The buffer for dilutions and all binding steps was: 20 mM phosphate, 150 mM NaCl, pH 7.2.

Kd [1]: 10 to 50 nM
B1: M14 antibody (as used in Example 7) (antibody, V domains shown)
VH: EVQLQESGPSLVKPSQTLSLTCSVTGDSITSGYWNWIRKFPGNKLEYMGYISYSGITDYNPSLKSRISITRDTSKNQYYLQLNSVTTEDTATYYCARYGNYGYAMDYWGQGTSVTVSS
VL: DIVLTQSPASLAVSLGQRATISCRASESVDTYGNSFMHWYQQKSGQSPKLLIYRASNLESGIPARFGGSGSRTDFTLTIDPVEADDVATYYCQQSYEDPWTFGGGTKLEIK
notes: also called monoclonal antibody M14

Kd [2]: < 0.01 nM
B2: caninized M14 IgG-B (antibody, V domains shown)
VH: B1 VH with Q5V, S15G, Q16G, T17S, S19R, S68T, T70S, S113L
VL: DIVMTQSPASLSVSLGQRATISCRASESVDTYGNSFMHWYQQKPGQSPKLLIYRASNLESGIPARFGGSGSGTDFTLTIDPVQADDVATYYCQQSYEDPWTFGGGTKLEIKR
notes: canine IgG-B; also called caninized M14 antibody; caninized IL31-mAb M14
